Test results taken from patent publication US20240024426A1, “HYPOTENSIVE PHARMACEUTICAL COMPOSITION COMPRISING TRIPLE ACTIVATOR HAVING ACTIVITY FOR ALL OF GLUCAGON, GLP-1, AND GIP RECEPTORS” (HANMI PHARM. CO., LTD., priority 2020, published 2024).
Bridges are numbered along the chain shown (N, C = ends). Where no end group is shown, it is not given here. [ ]: non-standard residue; d: D form. The star is where a group is joined. Acetyl(2-(4-imidazolyl)) = O=C(Cc1c[nH]cn1)*; Aib = CC(C)(N)C(=O)O

Tests used:
Test in all cases: cell-based or functional assay
[1] = molecular target: human GLP-1 receptor (human, UniProt P43220 24-463)
[2] = molecular target: human GCG receptor (human, UniProt P47871 26-477)
Chain of human GCG receptor (P47871 26-477): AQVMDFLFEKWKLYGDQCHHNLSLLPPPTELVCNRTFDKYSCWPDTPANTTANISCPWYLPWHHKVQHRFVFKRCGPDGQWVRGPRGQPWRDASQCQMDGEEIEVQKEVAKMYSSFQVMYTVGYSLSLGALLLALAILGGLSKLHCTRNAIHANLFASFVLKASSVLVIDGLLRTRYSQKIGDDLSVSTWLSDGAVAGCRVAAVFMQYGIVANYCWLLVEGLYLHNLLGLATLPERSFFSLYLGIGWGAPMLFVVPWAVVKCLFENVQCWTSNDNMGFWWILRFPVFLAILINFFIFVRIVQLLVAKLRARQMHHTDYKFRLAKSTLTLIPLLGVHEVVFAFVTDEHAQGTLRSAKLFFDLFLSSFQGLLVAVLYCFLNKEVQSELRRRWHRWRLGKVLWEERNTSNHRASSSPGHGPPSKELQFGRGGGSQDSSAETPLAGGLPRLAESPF

[3] = molecular target: T1, human GIP receptor (human, UniProt P48546 22-466)
T1 sequence (looked up): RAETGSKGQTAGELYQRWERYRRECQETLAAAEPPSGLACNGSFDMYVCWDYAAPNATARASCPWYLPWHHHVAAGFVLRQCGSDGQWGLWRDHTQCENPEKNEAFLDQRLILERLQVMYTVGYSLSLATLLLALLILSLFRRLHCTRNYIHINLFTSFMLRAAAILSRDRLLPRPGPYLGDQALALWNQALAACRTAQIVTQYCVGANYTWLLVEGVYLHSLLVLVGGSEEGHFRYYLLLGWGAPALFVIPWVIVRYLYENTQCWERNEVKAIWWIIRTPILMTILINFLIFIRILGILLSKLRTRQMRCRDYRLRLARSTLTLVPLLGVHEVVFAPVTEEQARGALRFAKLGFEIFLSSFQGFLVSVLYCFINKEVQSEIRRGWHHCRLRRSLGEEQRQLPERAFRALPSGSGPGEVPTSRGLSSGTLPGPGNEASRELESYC

Y[Aib]QGTFTSDYSKYLDECRAKEFVQWLLAQKGKKNDWKHNIT (bridge 16-20) [Triple agonist of SEQ ID NO: 23]
In vitro activity compared with native peptide (%) vs. GLP-1 [1]: 4.01% | In vitro activity compared with native peptide (%) vs. Glucagon [2]: 9.3% | In vitro activity compared with native peptide (%) vs. GIP [3]: < 0.1%

Y[Aib]QGTFTSDYSKYLDECRAKEFVQWLKNGGPSSGAPPPS (bridge 16-20) [Triple agonist of SEQ ID NO: 24]
In vitro activity compared with native peptide (%) vs. GLP-1 [1]: 41.2% | In vitro activity compared with native peptide (%) vs. Glucagon [2]: 9.3% | In vitro activity compared with native peptide (%) vs. GIP [3]: < 0.1%

{Acetyl(2-(4-imidazolyl))}-GQGTFTSDLSKQMDSEAQQLFIEWLKNGGPSSGAPPPSHG [Triple agonist of SEQ ID NO: 16]
In vitro activity compared with native peptide (%) vs. GLP-1 [1]: 2.1% | In vitro activity compared with native peptide (%) vs. Glucagon [2]: < 0.1% | In vitro activity compared with native peptide (%) vs. GIP [3]: < 0.1%

Y[Aib]QGTFTSDYSKALDEKAAKEFVNWLLDQHPSSGQPPPSC (bridge 16-20) [Triple agonist of SEQ ID NO: 101]
In vitro activity compared with native peptide (%) vs. GLP-1 [1]: 23.2% | In vitro activity compared with native peptide (%) vs. Glucagon [2]: 13.9% | In vitro activity compared with native peptide (%) vs. GIP [3]: 40.1%

{Acetyl(2-(4-imidazolyl))}-GEGTFTSDLSKYLDSRRQQLFVQWLKAGGPSSGAPPPSHG [Triple agonist of SEQ ID NO: 11]
In vitro activity compared with native peptide (%) vs. GLP-1 [1]: 1.4% | In vitro activity compared with native peptide (%) vs. Glucagon [2]: < 0.1% | In vitro activity compared with native peptide (%) vs. GIP [3]: < 0.1%

H[Aib]QGTFTSDVSSYLDGQAQKEFIAWLVKGC [Triple agonist of SEQ ID NO: 2]
In vitro activity compared with native peptide (%) vs. GLP-1 [1]: 5.9% | In vitro activity compared with native peptide (%) vs. Glucagon [2]: < 0.1% | In vitro activity compared with native peptide (%) vs. GIP [3]: < 0.1%

[Acetyl(2-(4-imidazolyl))]GQGTFTSDLSKQMDSERAREFIEWLKNTGPSSGAPPPSHG [Triple agonist of SEQ ID NO: 18]
In vitro activity compared with native peptide (%) vs. GLP-1 [1]: < 0.1% | In vitro activity compared with native peptide (%) vs. Glucagon [2]: < 0.1% | In vitro activity compared with native peptide (%) vs. GIP [3]: < 0.1%

Y[Aib]QGTFTSDYSKALDEKAAKDFVNWLLDHHPSSGQPPPSC (bridge 16-20) [Triple agonist of SEQ ID NO: 99]
In vitro activity compared with native peptide (%) vs. GLP-1 [1]: 20.9% | In vitro activity compared with native peptide (%) vs. Glucagon [2]: 14.9% | In vitro activity compared with native peptide (%) vs. GIP [3]: 57.7%

Y[Aib]QGTFTSDYSKALDEKAAKEFVQWLLDQHPSSGQPPPSC (bridge 16-20) [Triple agonist of SEQ ID NO: 100]
In vitro activity compared with native peptide (%) vs. GLP-1 [1]: 42.2% | In vitro activity compared with native peptide (%) vs. Glucagon [2]: 12.7% | In vitro activity compared with native peptide (%) vs. GIP [3]: 118%

{Acetyl(2-(4-imidazolyl))}-GEGTFISDYSIQLDEIAVQDFVEWLLAQKPSSGAPPPSHG [Triple agonist of SEQ ID NO: 13]
In vitro activity compared with native peptide (%) vs. GLP-1 [1]: < 0.1% | In vitro activity compared with native peptide (%) vs. Glucagon [2]: < 0.1% | In vitro activity compared with native peptide (%) vs. GIP [3]: < 0.1%

Y[Aib]QGTFTSDYSKCLDEKRAKEFVQWLLDHHPSSGQPPPS (bridge 16-20) [Triple agonist of SEQ ID NO: 22]
In vitro activity compared with native peptide (%) vs. GLP-1 [1]: 20.1% | In vitro activity compared with native peptide (%) vs. Glucagon [2]: 140% | In vitro activity compared with native peptide (%) vs. GIP [3]: 59.7%

Y[Aib]QGTFTSDYSKALDEKAAKDFVNWLLDQHPSSGQPPPSC (bridge 16-20) [Triple agonist of SEQ ID NO: 102]
In vitro activity compared with native peptide (%) vs. GLP-1 [1]: 23.3% | In vitro activity compared with native peptide (%) vs. Glucagon [2]: 29.5% | In vitro activity compared with native peptide (%) vs. GIP [3]: 58%

{Acetyl(2-(4-imidazolyl))}-GQGTFTSDLSKQMDEERAREFIEWLLAQKPSSGAPPPSHG [Triple agonist of SEQ ID NO: 17]
In vitro activity compared with native peptide (%) vs. GLP-1 [1]: 0.2% | In vitro activity compared with native peptide (%) vs. Glucagon [2]: < 0.1% | In vitro activity compared with native peptide (%) vs. GIP [3]: < 0.1%

H[Aib]QGTFTSDVSSYLLGQAAKQFIAWLVKGGGPSSGAPPPSC [Triple agonist of SEQ ID NO: 3]
In vitro activity compared with native peptide (%) vs. GLP-1 [1]: 1.8% | In vitro activity compared with native peptide (%) vs. Glucagon [2]: < 0.1% | In vitro activity compared with native peptide (%) vs. GIP [3]: < 0.1%

H[Aib]QGTFTSDCSKYLDERAAQDFVQWLLDGGPSSGAPPPS [Triple agonist of SEQ ID NO: 25]
In vitro activity compared with native peptide (%) vs. GLP-1 [1]: 82.6% | In vitro activity compared with native peptide (%) vs. Glucagon [2]: 0.1% | In vitro activity compared with native peptide (%) vs. GIP [3]: < 0.1%

Y[Aib]QGTFTSDYSKYLDECRAKEFVQWLLDHHPSSGQPPPS (bridge 16-20) [Triple agonist of SEQ ID NO: 21]
In vitro activity compared with native peptide (%) vs. GLP-1 [1]: 17.8% | In vitro activity compared with native peptide (%) vs. Glucagon [2]: 267% | In vitro activity compared with native peptide (%) vs. GIP [3]: 22.7%

{Acetyl(2-(4-imidazolyl))}-GEGTFISDLSKYMDEQAVQLFVEWLMAGGPSSGAPPPSHG [Triple agonist of SEQ ID NO: 12]
In vitro activity compared with native peptide (%) vs. GLP-1 [1]: 0.4% | In vitro activity compared with native peptide (%) vs. Glucagon [2]: < 0.1% | In vitro activity compared with native peptide (%) vs. GIP [3]: < 0.1%

[Acetyl(2-(4-imidazolyl))]GQGTFTSDLSIQYEEEAQQDFVEWLKDTGPSSGAPPPSHG [Triple agonist of SEQ ID NO: 20]
In vitro activity compared with native peptide (%) vs. GLP-1 [1]: < 0.1% | In vitro activity compared with native peptide (%) vs. Glucagon [2]: < 0.1% | In vitro activity compared with native peptide (%) vs. GIP [3]: < 0.1%

[Acetyl(2-(4-imidazolyl))]GQGTFTSDLSIQYDSEHQRDFIEWLKDTGPSSGAPPPSHG [Triple agonist of SEQ ID NO: 19]
In vitro activity compared with native peptide (%) vs. GLP-1 [1]: < 0.1% | In vitro activity compared with native peptide (%) vs. Glucagon [2]: < 0.1% | In vitro activity compared with native peptide (%) vs. GIP [3]: < 0.1%

{Acetyl(2-(4-imidazolyl))}-GQGTFTSDYSIQLDEIAVRDFVEWLKNGGPSSGAPPPSHG [Triple agonist of SEQ ID NO: 14]
In vitro activity compared with native peptide (%) vs. GLP-1 [1]: 28% | In vitro activity compared with native peptide (%) vs. Glucagon [2]: < 0.1% | In vitro activity compared with native peptide (%) vs. GIP [3]: < 0.1%
